{"source": "patent US20250332278A1", "about": "“MULTIVALENT DISPLAY OF APOAI PEPTIDE ON NANOPARTICLES AGAINST ATHEROSCLEROSIS” (The Regents of the University of California, priority 2022, published 2025)", "key": {"SVEC cells [1]": {"test_system": "SVEC cells", "assay": "ROS assay", "assay_type": "cell-based", "conditions": "8 h treatment (0.5 μM particles or matched free peptide), then ox-LDL 4 h", "procedure": "ROS assay. SVEC cells (ATCC) were seeded in four-compartment 35-mm CELLview glass-bottom dishes or 96-well plates at 6×10^4 cells/mL in 500 μL DMEM and were allowed to reach ˜80% confluence. The medium was then removed, and the cells were washed once with PBS before incubation with VLPs/VNPs for 8 h. Applicant then added 100 μg/mL ox-LDL for 4 h to induce oxidative stress and detected ROS using a CellROX Green Reagent Kit. Images were captured using a Nikon AiR confocal microscope with a 20×, 0.75 numerical aperture dry objective."}, "[2]": {"assay": "Dynamic light scattering of VLP/VNP conjugates", "assay_type": "physicochemical", "conditions": "1 mg/mL in 0.01 M KP buffer", "procedure": "Dynamic Light Scattering (DLS). The hydrodynamic diameter of VLPs/VNPs conjugates were probed using a Zetasizer Nano ZSP/Zen5600 instrument (Malvern Panalytical, Malvern, UK). Particle hydrodynamic diameter was calculated as the weighted mean of the intensity distribution and samples were analyzed at 1 mg/mL concentration in 0.01 M KP buffer."}, "[3]": {"target": "ATP-binding cassette transporter A1 (ABCA1) on J774 foam cells (UniProt P41233)", "sequence (P41233 whole entry)": "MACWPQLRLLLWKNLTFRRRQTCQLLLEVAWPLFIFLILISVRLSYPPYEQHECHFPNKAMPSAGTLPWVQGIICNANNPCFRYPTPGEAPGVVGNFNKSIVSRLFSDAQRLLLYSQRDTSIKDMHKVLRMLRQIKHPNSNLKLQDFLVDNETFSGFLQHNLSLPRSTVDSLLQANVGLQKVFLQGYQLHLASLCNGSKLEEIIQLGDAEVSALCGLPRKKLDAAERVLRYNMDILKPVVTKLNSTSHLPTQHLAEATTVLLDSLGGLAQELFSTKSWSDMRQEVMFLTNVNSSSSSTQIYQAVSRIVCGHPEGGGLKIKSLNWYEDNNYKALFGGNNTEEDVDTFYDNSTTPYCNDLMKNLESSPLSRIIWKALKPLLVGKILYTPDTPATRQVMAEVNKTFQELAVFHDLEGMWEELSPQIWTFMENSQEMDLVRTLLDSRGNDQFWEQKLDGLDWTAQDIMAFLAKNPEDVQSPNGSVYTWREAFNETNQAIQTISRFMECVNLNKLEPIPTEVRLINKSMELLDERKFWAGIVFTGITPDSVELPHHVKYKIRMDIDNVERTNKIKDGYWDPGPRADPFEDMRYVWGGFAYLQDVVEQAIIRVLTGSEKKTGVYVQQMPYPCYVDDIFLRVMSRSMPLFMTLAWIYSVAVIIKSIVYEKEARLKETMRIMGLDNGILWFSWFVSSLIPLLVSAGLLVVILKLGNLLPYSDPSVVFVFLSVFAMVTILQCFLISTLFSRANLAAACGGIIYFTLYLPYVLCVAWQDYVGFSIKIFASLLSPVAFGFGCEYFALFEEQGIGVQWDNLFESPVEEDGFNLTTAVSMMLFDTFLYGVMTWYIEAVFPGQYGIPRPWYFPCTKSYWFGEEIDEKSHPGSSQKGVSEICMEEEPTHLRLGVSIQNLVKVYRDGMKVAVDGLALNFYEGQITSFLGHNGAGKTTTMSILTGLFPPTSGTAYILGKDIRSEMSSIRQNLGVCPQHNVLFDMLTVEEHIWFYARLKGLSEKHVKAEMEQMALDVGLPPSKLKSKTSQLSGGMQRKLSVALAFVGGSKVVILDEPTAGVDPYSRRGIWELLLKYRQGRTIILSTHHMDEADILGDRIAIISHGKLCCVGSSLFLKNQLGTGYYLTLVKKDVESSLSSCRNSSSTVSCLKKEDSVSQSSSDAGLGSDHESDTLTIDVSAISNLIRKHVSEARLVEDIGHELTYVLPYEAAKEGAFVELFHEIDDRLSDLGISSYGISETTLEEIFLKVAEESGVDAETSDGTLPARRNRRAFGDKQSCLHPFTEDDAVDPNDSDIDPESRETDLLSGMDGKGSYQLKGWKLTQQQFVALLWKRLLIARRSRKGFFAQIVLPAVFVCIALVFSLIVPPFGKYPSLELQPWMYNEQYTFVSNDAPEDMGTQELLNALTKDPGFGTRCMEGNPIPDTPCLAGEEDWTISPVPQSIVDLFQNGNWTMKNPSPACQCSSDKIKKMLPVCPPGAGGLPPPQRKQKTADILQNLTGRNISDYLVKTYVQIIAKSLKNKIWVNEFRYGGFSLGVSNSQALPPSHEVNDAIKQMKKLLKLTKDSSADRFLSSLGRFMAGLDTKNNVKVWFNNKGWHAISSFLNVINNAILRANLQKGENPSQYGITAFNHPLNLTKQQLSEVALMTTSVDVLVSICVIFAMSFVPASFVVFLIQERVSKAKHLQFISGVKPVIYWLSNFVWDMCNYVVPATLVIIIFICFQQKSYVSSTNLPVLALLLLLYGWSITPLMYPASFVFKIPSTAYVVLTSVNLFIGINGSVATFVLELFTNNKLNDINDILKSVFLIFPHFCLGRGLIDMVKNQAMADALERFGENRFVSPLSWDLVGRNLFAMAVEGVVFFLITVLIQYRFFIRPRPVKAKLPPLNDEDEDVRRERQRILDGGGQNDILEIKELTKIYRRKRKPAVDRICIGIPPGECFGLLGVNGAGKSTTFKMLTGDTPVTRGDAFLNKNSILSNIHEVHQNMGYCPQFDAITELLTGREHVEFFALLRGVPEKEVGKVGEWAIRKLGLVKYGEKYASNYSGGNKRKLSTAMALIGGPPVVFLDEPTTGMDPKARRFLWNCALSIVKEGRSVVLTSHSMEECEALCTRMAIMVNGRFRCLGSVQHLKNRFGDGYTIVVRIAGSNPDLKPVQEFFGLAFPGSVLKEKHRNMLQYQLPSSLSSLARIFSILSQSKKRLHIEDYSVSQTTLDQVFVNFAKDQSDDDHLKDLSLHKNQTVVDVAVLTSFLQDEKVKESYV", "assay": "cell-based or functional assay"}, "SVEC cells [4]": {"test_system": "SVEC cells", "assay": "Wound healing assay under oxidative stress", "assay_type": "cell-based", "conditions": "0.5 μM, 8-h treatment, 4-h 50 μg/mL ox-LDL, versus control (serum-free medium)", "procedure": "Wound healing assay. SVEC cell migration was investigated using a Radius 96-well kit (Cell Bio Labs). Applicant seeded 3×10^4 cells in 200 μL DMEM per well and allowed the cells to reach ˜80% confluence. After removing the Radius Gel, cells were allowed to migrate for 24 h in the presence of various treatments. Bright-field phase contrast images were acquired after 0, 12 and 24 h using an EVOS FL microscope fitted with a 10× objective (n=6 cells per group). Percentage wound closure was calculated by tracing the wound perimeter in ImageJ to calculate the area at t=12 or 24 h and dividing by the initial starting area at t=0 h.\nApplicant therefore evaluated the effect of T-4FN on wound healing using SVEC cells."}, "[5]": {"test_system": "J774 foam cells (ABCA1-mediated cholesterol efflux)", "assay": "J774 cholesterol efflux assay", "assay_type": "cell-based", "procedure": "J774 Cholesterol efflux assay. Cholesterol efflux was measured from J774 cells (ATCC) as previously described.^23 Briefly, J774 cells were seeded in 96-well plates at 1×10^5 cells/100 μL in DMEM (Corning) with 10% (v/v) fetal bovine serum (FBS) and 1% (w/v) penicillin-streptomycine (P/S). Cells were incubated until they reached ˜80% confluence. After two rinses with FBS-free DMEM containing 1% (w/v) P/S they were incubated for 48 h in 200 μL FBS-free DMEM containing 40 μg/mL acetylated low-density lipoprotein (AcLDL), 2 μg/mL Sandoz inhibitor, 1% (w/v) P/S, and 5% (v/v) human lipoprotein-deficient serum (LPDS) to produce foam cells. Excess lipids were removed by two rinses as above, and foam cells were equilibrated for 12 h in 200 μL FBS-free DMEM, 2 μg/mL Sandoz inhibitor, 0.3 mM CPT-cAMP, 1% (w/v) P/S, and 5% (v/v) human LPDS. After two further rinses, cholesterol efflux was initiated by adding different VLP/VNP or peptide treatments in FBS-free DMEM containing 1% (w/v) P/S and 5% (v/v) human LPDS and incubating for 15 h. The medium was then collected, centrifuged (1000×g, 10 min, 4° C.) and the cholesterol content of the supernatant was determined using the Amplex assay kit. Cells were washed three times with ice-cold PBS, lysed using 200 μL of Cytobuster lysis buffer, and the cholesterol content of the lysate was determined using the Amplex assay kit. Cholesterol efflux was calculated by dividing the amount of cholesterol in the medium by the total cholesterol content of the medium and lysate."}, "[6]": {"assay": "BODIPY-cholesterol binding assay (DLS and fluorescence)", "conditions": "for PDI after incubation with BODIPY-cholesterol / Zav after incubation with BODIPY-cholesterol: 20 uM BODIPY-cholesterol; for PDI after incubation with BODIPY-cholesterol: 2 h at 37° C.; for size change / cholesterol binding on incubation with BODIPY-cholesterol: relative to cholesterol-free controls", "procedure": "BODIPY-Cholesterol Binding assay. A fluorescent cholesterol, BODIPY-cholesterol or 23-(dipyrrometheneboron difluoride)-24-norcholesterol was used to examine the HDL biomimics' ability to uptake cholesterol. VNP samples (500 μg) and equimolar HDL were incubated with 20 uM BODIPY-cholesterol for 2 hours at 37° C. on a shaker at 150 rpm in 0.5 mL of 10 mM KP/DMSO. After incubation, samples were purified by centrifuge using 100 kDa molecular-weight cutoff Amicon spin-filters to remove free, unbound cholesterol. Samples were analyzed for size on DLS (see above) and fluorescence before and after BODIPY-cholesterol binding using 480/508 nm excitation/emission parameters on a Tecan Plate Reader.\nTo investigate the ability of the TMV particles to bind cholesterol, Applicant mixed them with fluorescent BODIPY cholesterol for 2 h at 37° C. in 0.01M KP/DMSO (50:50).\nThe cholesterol-bound nanoparticles were separated from free cholesterol by centrifugation in spin filters with a 100-kDa cutoff. Samples without cholesterol were incubated as a negative control. Purified fractions were analyzed by DLS and fluorimetry."}, "J774 foam cells": {"test_system": "J774 foam cells", "assay": "TMV-ApoAI distribution during cholesterol efflux from J774 foam cells (confocal fluorescence microscopy)", "assay_type": "cell-based", "conditions": "0.5 μM 5FAM-labeled particles, 12 h", "procedure": "TMV-ApoAI distribution during cholesterol efflux from J774 foam cells. Applicant seeded 1×10^5 J774 cells in 500 μL DMEM containing 10% (v/v) FBS and 1% (w/v) P/S into each zone of a four-compartment 35-mm CELLview glass-bottom dish, and allowed them to reach ˜80% confluence. Cells were rinsed twice with 500 μL FBS-free DMEM containing 1% (w/v) P/S and incubated for 48 h in 200 μL FBS-free DMEM containing 40 μg/mL of fluorescence-labeled acetylated low-density lipoprotein (Dil-AcLDL), 2 μg/mL Sandoz inhibitor, 1% (w/v) P/S, and 5% (v/v) human LPDS to produce labeled foam cells. After two rinses as above, foam cells were equilibrated for 12 h in 200 μL FBS-free DMEM containing 2 μg/mL Sandoz inhibitor, 0.3 mM CPT-cAMP, 1% (w/v) P/S, and 5% (v/v) human LPDS. After two further rinses, the cells were treated with 100 μL of 5FAM-labeled treatments and controls in FBS-free DMEM containing 1% (w/v) P/S and 5% (v/v) human LPDS. After 12 h, the cells were washed twice with 500 μL PBS and then fixed for 10 minutes at room temperature using a PBS solution containing 10% (w/v) PFA, 25% (w/v) glutaraldehyde. Cells were then twice washed with PBS and subsequently stained for 45 min with 300 μL of wheat-germ agglutinin AlexaFluor 647 (WGA-647) prepared in PBS and 5% (v/v) goat serum at a 1:500 dilution. Cells were then twice washed with PBS and then stained with 300 μL DAPI dye (5 μg/mL in PBS) for 20 min. Cells were washed twice with PBS and then imaged using a Nikon AiR confocal microscope with a 20×, 0.75 numerical aperture dry objective.\nA fluorescently labeled T-4FN-5FAM was used to promote cholesterol efflux from fluorescently-labeled foam cells (FIG. 5A and FIG. 15B). Cholesterol and T-4FN-5FAM fluorescence was quantified using Nikon AR Elements Analysis software's 3D volume viewer tool and plotted in a bar graph (FIG. 5C and FIG. 5D)."}}, "data": [{"molecule": "CGVLESFKASFLSALEEWTKKLQ [23MJ]", "values": [{"measurement": "ROS production (mitigation)", "setting": "SVEC cells [1]", "value": "did not mitigate ROS"}]}, {"molecule": "Qβ: 30-nm spherical virus-like particle with 180 identical coat protein units (SEQ ID NO: 6)", "values": [{"measurement": "PDI (DLS)", "setting": "[2]", "value": 0.06}, {"measurement": "Zav (hydrodynamic diameter, DLS)", "setting": "[2]", "value": "~30.4", "unit": "nm"}]}, {"molecule": "TMV-4FN conjugate (TMV-Lys nanoparticle displaying ApoAI peptide 4FN through an SM(PEG)4 linker) (from UniProt P69687 2-157)", "values": [{"measurement": "cholesterol efflux from J774 foam cells under upregulated ABCA1 conditions (fold (against TMV-4FC))", "setting": "[3]", "value": 2.5}]}, {"molecule": "CSGGGDWFKAFYDKVAEKFKEAF [4FN]", "values": [{"measurement": "increase in wound closure after 24 h", "setting": "SVEC cells [4]", "value": 3.20, "unit": "fold"}, {"measurement": "cholesterol efflux", "setting": "[5]; upregulated ABCA1 conditions", "value": "most potent peptide"}]}, {"molecule": "TMV (protein) MSYSITTPSQFVFLSSAWADPIELINLCTNALGNQFQTQQARTVVQRQFSEVWKPSPQVTVRFPDSDFKVYRYNAVLDPLVTALLGAFDTRNRIIEVENQANPTTAETLDATRRVDDATVAIRSAINNLIVELIRGTGSYNRSSFESSSGLVWTSGPK", "values": [{"measurement": "PDI (DLS)", "setting": "[2]", "value": 0.230}, {"measurement": "Zav (hydrodynamic diameter, DLS)", "setting": "[2]", "value": "~203.1", "unit": "nm"}, {"measurement": "increase in wound closure after 12 h", "setting": "SVEC cells [4]", "value": 2.58, "unit": "fold"}, {"measurement": "increase in wound closure after 24 h", "setting": "SVEC cells [4]", "value": 3.15, "unit": "fold"}, {"measurement": "PDI after incubation with BODIPY-cholesterol", "setting": "[6]", "value": 0.158}, {"measurement": "Zav after incubation with BODIPY-cholesterol", "setting": "[6]; 2 h at 37° C. in 0.01M KP/DMSO", "value": 293.6, "unit": "nm"}, {"measurement": "PDI before incubation with BODIPY-cholesterol", "setting": "[6]; cholesterol-free control", "value": 0.240}, {"measurement": "size change / cholesterol binding on incubation with BODIPY-cholesterol", "setting": "[6]", "value": "inherent affinity for cholesterol"}, {"measurement": "Dil-LDL cholesterol fluorescence intensity (cell-associated)", "setting": "J774 foam cells", "value": "promotes a baseline level of cholesterol efflux"}, {"measurement": "localization of particles on foam cells", "setting": "J774 foam cells", "value": "mostly observed within the foam cells"}]}, {"molecule": "T-4FN: TMV-Lys nanoparticle with 4FN ApoAI peptide conjugated to surface lysines via SM(PEG)4 maleimide-thiol chemistry (conjugate) SYSITTPSQFVFLSSAWADPIELINLCTNALGNQFQTQQARTVVQRQFSEVWKPSPQVTVRFPDSDFKVYRYNAVLDPLVTALLGAFDTRNRIIEVENQANPTTAETLDATRRVDDATVAIRSAINNLIVELIRGTGSYNRSSFESSSGLVWTSGPK peptide: CSGGGDWFKAFYDKVAEKFKEAF", "values": [{"measurement": "PDI (DLS)", "setting": "[2]", "value": 0.266}, {"measurement": "Zav (hydrodynamic diameter, DLS)", "setting": "[2]", "value": "~255.8", "unit": "nm"}, {"measurement": "increase in wound closure after 12 h", "setting": "SVEC cells [4]", "value": 6.41, "unit": "fold"}, {"measurement": "increase in wound closure after 24 h", "setting": "SVEC cells [4]", "value": 4.70, "unit": "fold"}, {"measurement": "ROS production (mitigation)", "setting": "SVEC cells [1]", "value": "reducing the ROS signal to near the level of the negative media control"}, {"measurement": "PDI after incubation with BODIPY-cholesterol", "setting": "[6]", "value": 0.145}, {"measurement": "Zav after incubation with BODIPY-cholesterol", "setting": "[6]; 2 h at 37° C. in 0.01M KP/DMSO", "value": 708.8, "unit": "nm"}, {"measurement": "change in fluorescence after BODIPY-cholesterol binding", "setting": "[6]; 480/508 nm, signal after minus before binding", "value": "most intense signal"}, {"measurement": "PDI before incubation with BODIPY-cholesterol", "setting": "[6]; cholesterol-free control", "value": 0.193}, {"measurement": "Zav before incubation with BODIPY-cholesterol", "setting": "[6]; cholesterol-free control, 2 h at 37° C. in 0.01M KP/DMSO", "value": 220.5, "unit": "nm"}, {"measurement": "size change / cholesterol binding on incubation with BODIPY-cholesterol", "setting": "[6]", "value": "greatest change"}, {"measurement": "cholesterol efflux when ABCA1 receptor is not upregulated", "setting": "[5]; homeostatic ABCA1 conditions, FIG. 4D", "value": "drastically decreases"}, {"measurement": "cholesterol efflux potency relative to TMV-4FC", "setting": "[5]; upregulated ABCA1 conditions, FIGS. 4B-4C", "value": "~2.5", "unit": "fold"}, {"measurement": "Dil-LDL cholesterol fluorescence intensity (cell-associated)", "setting": "J774 foam cells", "value": "significantly lower"}, {"measurement": "fluorescence intensity of 5FAM (cell-associated)", "setting": "J774 foam cells", "value": "significantly higher"}, {"measurement": "localization of particles on foam cells", "setting": "J774 foam cells", "value": "extracellular, forming a dense layer on the plasma membrane"}]}, {"molecule": "Qβ-4FN: bacteriophage Qβ VLP conjugated to ApoAI peptide 4FN via SM(PEG)4 (conjugate) AKLETVTLGNIGKDGKQTLVLNPRGVNPTNGVASLSQAGAVPALEKRVTVSVSQPSRNRKNYKVQVKIQNPTACTANGSCDPSVTRQAYADVTFSFTQYSTDEERAFVRTELAALLASPLLIDAIDQLNPAY peptide: CSGGGDWFKAFYDKVAEKFKEAF", "values": [{"measurement": "PDI (DLS)", "setting": "[2]", "value": 0.177}, {"measurement": "Zav (hydrodynamic diameter, DLS)", "setting": "[2]", "value": "~40.5", "unit": "nm"}, {"measurement": "cholesterol efflux", "setting": "[5]; upregulated ABCA1 conditions", "value": "does not display significant cholesterol efflux"}]}]}
